The labels stand for the following.
B1: PBX1_(1-430), wild-type recombinant [human] / PREP1_(1-436), wild-type recombinant (TR-FIA) [not stated] (parent complex)
chain 1: MDEQPRLMHSHAGVGMAGHPGLSQHLQDGAGGTEGEGGRKQDIGDILQQIMTITDQSLDEAQARKHALNCHRMKPALFNVLCEIKEKTVLSIRGAQEEEPTDPQLMRLDNMLLAEGVAGPEKGGGSAAAAAAAAASGGAGSDNSVEHSDYRAKLSQIRQIYHTELEKYEQACNEFTTHVMNLLREQSRTRPISPKEIERMVSIIHRKFSSIQMQLKQSTCEAVMILRSRFLDARRKRRNFNKQATEILNEYFYSHLSNPYPSEEAKEELAKKCGITVSQVSNWFGNKRIRYKKNIGKFQEEANIYAAKTAVTATNVSAHGSQANSPSTPNSAGSSSSFNMSNSGDLFMSVQSLNGDSYQGAQVGANVQSQVDTLRHVISQTGGYSDGLAASQMYSPQGISANGGWQDATTPSSVTSPTEGPGSVHSDTSN
chain 2: MMATQTLSIDSYQDGQQMQVVTELKTEQDPNCSEPDAEGVSPPPVESQTPMDVDKQAIYRHPLFPLLALLFEKCEQSTQGSEGTTSASFDVDIENFVRKQEKEGKPFFCEDPETDNLMVKAIQVLRIHLLELEKVNELCKDFCSRYIACLKTKMNSETLLSGEPGSPYSPVQSQQIQSAITGTISPQGIVVPASALQQGNVAMATVAGGTVYQPVTVVTPQGQVVTQTLSPGTIRIQNSQLQLQLNQDLSILHQDDGSSKNKRGVLPKHATNVMRSWLFQHIGHPYPTEDEKKQIAAQTNLTLLQVNNWFINARRRILQPMLDSSCSETPKTKKKTAQNRPVQRFWPDSIASGVAQPPPSELTMSEGAVVTITTPVNMNVDSLQSLSSDGATLAVQQVMMAGQSEDESVDSTEEDAGALAPAHISGLVLENSDSLQ

Variants of B1 are the subject of this test. In words: TR-FIA; parent: 1; read off a plot.
For the variant chain 1 MDEQPRLMHSHAGVGMAGHPGLSQHLQDGAGGTEGEGGRKQDIGDIAQQIMTITDQSLDEAQARKHALNCHRMKPALFNVLCEIKEKTVLSIRGAQEEEPTDPQLMRLDNMLLAEGVAGPEKGGGSAAAAAAAAASGGAGSDNSVEHSDYRAKLSQIRQIYHTELEKYEQACNEFTTHVMNLLREQSRTRPISPKEIERMVSIIHRKFSSIQMQLKQSTCEAVMILRSRFLDARRKRRNFNKQATEILNEYFYSHLSNPYPSEEAKEELAKKCGITVSQVSNWFGNKRIRYKKNIGKFQEEANIYAAKTAVTATNVSAHGSQANSPSTPNSAGSSSSFNMSNSGDLFMSVQSLNGDSYQGAQVGANVQSQVDTLRHVISQTGGYSDGLAASQMYSPQGISANGGWQDATTPSSVTSPTEGPGSVHSDTSN [chain 1 L47A], the ratio to parent was roughly 0.75.
The figure for chain 1 MDEQPRLMHSHAGVGMAGHPGLSQHLQDGAGGTEGEGGRKQDIGDILQQIMTITDQSLDEAQARKHALNCHRMKPAAFNVLCEAKEKTVLSIRGAQEEEPTDPQLMRLDNMLLAEGVAGPEKGGGSAAAAAAAAASGGAGSDNSVEHSDYRAKLSQIRQIYHTELEKYEQACNEFTTHVMNLLREQSRTRPISPKEIERMVSIIHRKFSSIQMQLKQSTCEAVMILRSRFLDARRKRRNFNKQATEILNEYFYSHLSNPYPSEEAKEELAKKCGITVSQVSNWFGNKRIRYKKNIGKFQEEANIYAAKTAVTATNVSAHGSQANSPSTPNSAGSSSSFNMSNSGDLFMSVQSLNGDSYQGAQVGANVQSQVDTLRHVISQTGGYSDGLAASQMYSPQGISANGGWQDATTPSSVTSPTEGPGSVHSDTSN [chain 1 L77A, chain 1 I84A] is roughly 0.46; for chain 1 MDEQPRLMHSHAGVGMAGHPGLSQHLQDGAGGTEGEGGRKQDAGDALQQAMTITDQSLDEAQARKHALNCHRMKPALFNVLCEIKEKTVLSIRGAQEEEPTDPQLMRLDNMLLAEGVAGPEKGGGSAAAAAAAAASGGAGSDNSVEHSDYRAKLSQIRQIYHTELEKYEQACNEFTTHVMNLLREQSRTRPISPKEIERMVSIIHRKFSSIQMQLKQSTCEAVMILRSRFLDARRKRRNFNKQATEILNEYFYSHLSNPYPSEEAKEELAKKCGITVSQVSNWFGNKRIRYKKNIGKFQEEANIYAAKTAVTATNVSAHGSQANSPSTPNSAGSSSSFNMSNSGDLFMSVQSLNGDSYQGAQVGANVQSQVDTLRHVISQTGGYSDGLAASQMYSPQGISANGGWQDATTPSSVTSPTEGPGSVHSDTSN [chain 1 I43A, chain 1 I46A, chain 1 I50A] it is roughly 0.8.
To chain 1 MDEQPRLMHSHAGVGMAGHPGLSQHLQDGAGGTEGEGGRKQDAGDALQQIMTITDQSLDEAQARKHALNCHRMKPALFNVLCEIKEKTVLSIRGAQEEEPTDPQLMRLDNMLLAEGVAGPEKGGGSAAAAAAAAASGGAGSDNSVEHSDYRAKLSQIRQIYHTELEKYEQACNEFTTHVMNLLREQSRTRPISPKEIERMVSIIHRKFSSIQMQLKQSTCEAVMILRSRFLDARRKRRNFNKQATEILNEYFYSHLSNPYPSEEAKEELAKKCGITVSQVSNWFGNKRIRYKKNIGKFQEEANIYAAKTAVTATNVSAHGSQANSPSTPNSAGSSSSFNMSNSGDLFMSVQSLNGDSYQGAQVGANVQSQVDTLRHVISQTGGYSDGLAASQMYSPQGISANGGWQDATTPSSVTSPTEGPGSVHSDTSN [chain 1 I43A, chain 1 I46A] belongs roughly 0.79; to chain 1 MDEQPRLMHSHAGVGMAGHPGLSQHLQDGAGGTEGEGGRKQDIGDILQQIMTITDQSLDEAQARKHALNCHRMKPALFNVLCEIKEKTVLSIRGAQEEEPTDPQAMRLDNMLLAEGVAGPEKGGGSAAAAAAAAASGGAGSDNSVEHSDYRAKLSQIRQIYHTELEKYEQACNEFTTHVMNLLREQSRTRPISPKEIERMVSIIHRKFSSIQMQLKQSTCEAVMILRSRFLDARRKRRNFNKQATEILNEYFYSHLSNPYPSEEAKEELAKKCGITVSQVSNWFGNKRIRYKKNIGKFQEEANIYAAKTAVTATNVSAHGSQANSPSTPNSAGSSSSFNMSNSGDLFMSVQSLNGDSYQGAQVGANVQSQVDTLRHVISQTGGYSDGLAASQMYSPQGISANGGWQDATTPSSVTSPTEGPGSVHSDTSN [chain 1 L105A], roughly 0.71.
Take chain 1 MDEQPRLMHSHAGVGMAGHPGLSQHLQDGAGGTEGEGGRKQDIGDILQQIMTITDQSLDEAQARKHALNCHRMKPAAFNALCEIKEKTVLSIRGAQEEEPTDPQLMRLDNMLLAEGVAGPEKGGGSAAAAAAAAASGGAGSDNSVEHSDYRAKLSQIRQIYHTELEKYEQACNEFTTHVMNLLREQSRTRPISPKEIERMVSIIHRKFSSIQMQLKQSTCEAVMILRSRFLDARRKRRNFNKQATEILNEYFYSHLSNPYPSEEAKEELAKKCGITVSQVSNWFGNKRIRYKKNIGKFQEEANIYAAKTAVTATNVSAHGSQANSPSTPNSAGSSSSFNMSNSGDLFMSVQSLNGDSYQGAQVGANVQSQVDTLRHVISQTGGYSDGLAASQMYSPQGISANGGWQDATTPSSVTSPTEGPGSVHSDTSN [chain 1 L77A, chain 1 V80A]: the ratio to parent was roughly 0.42.
The figure for chain 1 MDEQPRLMHSHAGVGMAGHPGLSQHLQDGAGGTEGEGGRKQDAGDILQQAMTITDQSLDEAQARKHALNCHRMKPALFNVLCEIKEKTVLSIRGAQEEEPTDPQLMRLDNMLLAEGVAGPEKGGGSAAAAAAAAASGGAGSDNSVEHSDYRAKLSQIRQIYHTELEKYEQACNEFTTHVMNLLREQSRTRPISPKEIERMVSIIHRKFSSIQMQLKQSTCEAVMILRSRFLDARRKRRNFNKQATEILNEYFYSHLSNPYPSEEAKEELAKKCGITVSQVSNWFGNKRIRYKKNIGKFQEEANIYAAKTAVTATNVSAHGSQANSPSTPNSAGSSSSFNMSNSGDLFMSVQSLNGDSYQGAQVGANVQSQVDTLRHVISQTGGYSDGLAASQMYSPQGISANGGWQDATTPSSVTSPTEGPGSVHSDTSN [chain 1 I43A, chain 1 I50A] is roughly 0.84.
For chain 1 MDEQPRLMHSHAGVGMAGHPGLSQHLQDGAGGTEGEGGRKQDIGDILQQAMTITDQSLDEAQARKHALNCHRMKPALFNVLCEIKEKTVLSIRGAQEEEPTDPQLMRLDNMLLAEGVAGPEKGGGSAAAAAAAAASGGAGSDNSVEHSDYRAKLSQIRQIYHTELEKYEQACNEFTTHVMNLLREQSRTRPISPKEIERMVSIIHRKFSSIQMQLKQSTCEAVMILRSRFLDARRKRRNFNKQATEILNEYFYSHLSNPYPSEEAKEELAKKCGITVSQVSNWFGNKRIRYKKNIGKFQEEANIYAAKTAVTATNVSAHGSQANSPSTPNSAGSSSSFNMSNSGDLFMSVQSLNGDSYQGAQVGANVQSQVDTLRHVISQTGGYSDGLAASQMYSPQGISANGGWQDATTPSSVTSPTEGPGSVHSDTSN [chain 1 I50A], the ratio to parent was roughly 0.62.
The figure for chain 1 MDEQPRLMHSHAGVGMAGHPGLSQHLQDGAGGTEGEGGRKQDIGDILQQIMTITDQSLDEAQARKHALNCHRMKPALFNALCEIKEKTVLSIRGAQEEEPTDPQLMRLDNMLLAEGVAGPEKGGGSAAAAAAAAASGGAGSDNSVEHSDYRAKLSQIRQIYHTELEKYEQACNEFTTHVMNLLREQSRTRPISPKEIERMVSIIHRKFSSIQMQLKQSTCEAVMILRSRFLDARRKRRNFNKQATEILNEYFYSHLSNPYPSEEAKEELAKKCGITVSQVSNWFGNKRIRYKKNIGKFQEEANIYAAKTAVTATNVSAHGSQANSPSTPNSAGSSSSFNMSNSGDLFMSVQSLNGDSYQGAQVGANVQSQVDTLRHVISQTGGYSDGLAASQMYSPQGISANGGWQDATTPSSVTSPTEGPGSVHSDTSN [chain 1 V80A] is roughly 0.45; for chain 1 MDEQPRLMHSHAGVGMAGHPGLSQHLQDGAGGTEGEGGRKQDIGDILQQIMTITDQSLDEAQARKHALNCHRMKPAAFNVLCEIKEKTVLSIRGAQEEEPTDPQLMRLDNMLLAEGVAGPEKGGGSAAAAAAAAASGGAGSDNSVEHSDYRAKLSQIRQIYHTELEKYEQACNEFTTHVMNLLREQSRTRPISPKEIERMVSIIHRKFSSIQMQLKQSTCEAVMILRSRFLDARRKRRNFNKQATEILNEYFYSHLSNPYPSEEAKEELAKKCGITVSQVSNWFGNKRIRYKKNIGKFQEEANIYAAKTAVTATNVSAHGSQANSPSTPNSAGSSSSFNMSNSGDLFMSVQSLNGDSYQGAQVGANVQSQVDTLRHVISQTGGYSDGLAASQMYSPQGISANGGWQDATTPSSVTSPTEGPGSVHSDTSN [chain 1 L77A] it is roughly 0.63.
To chain 1 MDEQPRLMHSHAGVGMAGHPGLSQHLQDGAGGTEGEGGRKQDIGDILQQIMTITDQSLDEAQARKHALNCHRMKPALFNVLCEIKEKTVLSIRGAQEEEPTDPQLMRLDNMLLAEGVAGPEKGGGSAAAAAAAAASGGAGSDNSVEHSDYRAKLSQIRQIYHTELEKYEQACNEFTTHVMNLLREQSRTRPISPKEAERMVSIAHRKFSSIQMQLKQSTCEAVMILRSRFLDARRKRRNFNKQATEILNEYFYSHLSNPYPSEEAKEELAKKCGITVSQVSNWFGNKRIRYKKNIGKFQEEANIYAAKTAVTATNVSAHGSQANSPSTPNSAGSSSSFNMSNSGDLFMSVQSLNGDSYQGAQVGANVQSQVDTLRHVISQTGGYSDGLAASQMYSPQGISANGGWQDATTPSSVTSPTEGPGSVHSDTSN [chain 1 I197A, chain 1 I204A] belongs roughly 0.64; to chain 1 MDEQPRLMHSHAGVGMAGHPGLSQHLQDGAGGTEGEGGRKQDIGDILQQIMTITDQSLDEAQARKHALNCHRMKPALFNAACEIKEKTVLSIRGAQEEEPTDPQLMRLDNMLLAEGVAGPEKGGGSAAAAAAAAASGGAGSDNSVEHSDYRAKLSQIRQIYHTELEKYEQACNEFTTHVMNLLREQSRTRPISPKEIERMVSIIHRKFSSIQMQLKQSTCEAVMILRSRFLDARRKRRNFNKQATEILNEYFYSHLSNPYPSEEAKEELAKKCGITVSQVSNWFGNKRIRYKKNIGKFQEEANIYAAKTAVTATNVSAHGSQANSPSTPNSAGSSSSFNMSNSGDLFMSVQSLNGDSYQGAQVGANVQSQVDTLRHVISQTGGYSDGLAASQMYSPQGISANGGWQDATTPSSVTSPTEGPGSVHSDTSN [chain 1 V80A, chain 1 L81A], roughly 0.39.
To chain 1 MDEQPRLMHSHAGVGMAGHPGLSQHLQDGAGGTEGEGGRKQDIGDILQQIMTITDQSLDEAQARKHALNCHRMKPALFNVLCEIKEKTVLSIRGAQEEEPTDPQAMRADNMLLAEGVAGPEKGGGSAAAAAAAAASGGAGSDNSVEHSDYRAKLSQIRQIYHTELEKYEQACNEFTTHVMNLLREQSRTRPISPKEIERMVSIIHRKFSSIQMQLKQSTCEAVMILRSRFLDARRKRRNFNKQATEILNEYFYSHLSNPYPSEEAKEELAKKCGITVSQVSNWFGNKRIRYKKNIGKFQEEANIYAAKTAVTATNVSAHGSQANSPSTPNSAGSSSSFNMSNSGDLFMSVQSLNGDSYQGAQVGANVQSQVDTLRHVISQTGGYSDGLAASQMYSPQGISANGGWQDATTPSSVTSPTEGPGSVHSDTSN [chain 1 L105A, chain 1 L108A] belongs roughly 0.62.

Values taken from publication PMC7545097, “Mapping the native interaction surfaces of PREP1 with PBX1 by cross-linking mass-spectrometry and mutagenesis” (Scientific Reports, 2020).
